# Source: patent US20150023971A1 (H LUNDBECK A S, published 2015)
# T1: purified human Sortilin extracellular domain (produced in stably transfected CHO cells) (human, UniProt Q99523 78-755)
# T1 construct: also called immobilized Sortilin
# T1 sequence: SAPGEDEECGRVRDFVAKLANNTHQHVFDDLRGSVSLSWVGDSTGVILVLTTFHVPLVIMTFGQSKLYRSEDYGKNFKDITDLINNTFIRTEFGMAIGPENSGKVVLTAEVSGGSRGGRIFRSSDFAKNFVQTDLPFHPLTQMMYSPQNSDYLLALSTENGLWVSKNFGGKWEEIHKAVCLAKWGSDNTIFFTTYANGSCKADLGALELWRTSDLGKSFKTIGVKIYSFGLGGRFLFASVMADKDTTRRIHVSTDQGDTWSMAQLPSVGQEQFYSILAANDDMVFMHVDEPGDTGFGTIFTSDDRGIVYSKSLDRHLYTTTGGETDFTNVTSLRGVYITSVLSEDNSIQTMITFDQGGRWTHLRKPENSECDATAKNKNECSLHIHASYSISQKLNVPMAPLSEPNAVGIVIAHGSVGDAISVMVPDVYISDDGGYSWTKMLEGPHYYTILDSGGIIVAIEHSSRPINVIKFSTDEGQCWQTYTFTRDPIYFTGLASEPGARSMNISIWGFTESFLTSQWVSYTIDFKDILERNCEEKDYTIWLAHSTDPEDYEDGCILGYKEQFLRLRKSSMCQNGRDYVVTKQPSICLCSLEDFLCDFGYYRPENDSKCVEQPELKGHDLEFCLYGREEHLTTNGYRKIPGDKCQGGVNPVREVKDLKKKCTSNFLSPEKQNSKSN
# B1: recombinant human p75 neurotrophin receptor/Fc chimera (R&D systems) (Fc fusion, UniProt P08138 29-250, looked up)
# chain: KEACPTGLYTHSGECCKACNLGEGVAQPCGANQTVCEPCLDSVTFSDVVSATEPCKPCTECVGLQSMSAPCVEADDAVCRCAYGYYQDETTGRCEACRVCEAGSGLVFSCQDKQNTVCEECPDGTYSDEANHVDPCLPCTVCEDTERQLRECTRWADAECEEIPGRWITRSTPPEGSDSTAPSTQEPEAPPEQDLIASTVAGVVTTVMGSSQPVVTRGTTDN
# notes: Bought from R&D systems; also called p75-IgG-Fc chimeric protein; p75^NTR; not shown: IgG Fc part of the bought chimera
# Assays:
# [1] = molecular target: T1, purified human Sortilin extracellular …; assay: SPR (Biacore), NGF at 200 and 500 nM over immobilised Sortilin extracellular domain; the text gives ~8 nM for this pair
# [2] = molecular target: B1; assay: SPR (Biacore), 50-500 nM NGF over immobilised p75-IgG-Fc
# [3] = molecular target: T2, recombinant human TrkA/Fc chimera (R&D systems) (human, UniProt P04629-2 33-407); assay: SPR (Biacore), 50-500 nM NGF over immobilised TrkA-IgG-Fc
# T2 construct: Bought from R&D systems; also called TrkA-IgG-Fc; not shown: IgG Fc part of the bought chimera
# [4] = molecular target: T1, purified human Sortilin extracellular …; assay: SPR (Biacore), 50-500 nM NGF over immobilised Sortilin extracellular domain
# [5] = molecular target: T3, Human recombinant proNGF (produced and purified in E. coli) (human, UniProt P01138 19-241); assay: SPR (Biacore), 25-500 nM proNGF over immobilised p75-IgG-Fc
# T3 construct: Made as in Rattenholl et al 2001
# [6] = molecular target: T1, purified human Sortilin extracellular …; assay: SPR (Biacore), immobilised Sortilin extracellular domain (94 fmol/mm2); mature BDNF from Promega (#G1491), lower panel of FIG. 7
# [7] = molecular target: T1, purified human Sortilin extracellular …; assay: SPR (Biacore), immobilised Sortilin extracellular domain; other preparations of mature BDNF
# T3 sequence (P01138 other isoform, or with tags, fused parts or gaps limits assumed): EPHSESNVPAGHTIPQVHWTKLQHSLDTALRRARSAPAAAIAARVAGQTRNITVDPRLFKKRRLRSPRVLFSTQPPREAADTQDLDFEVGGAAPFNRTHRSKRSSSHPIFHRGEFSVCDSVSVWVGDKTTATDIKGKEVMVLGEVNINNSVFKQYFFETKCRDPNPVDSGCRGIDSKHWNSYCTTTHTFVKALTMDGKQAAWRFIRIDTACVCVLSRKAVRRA
# T2 sequence (P04629 other isoform, or with tags, fused parts or gaps mutant): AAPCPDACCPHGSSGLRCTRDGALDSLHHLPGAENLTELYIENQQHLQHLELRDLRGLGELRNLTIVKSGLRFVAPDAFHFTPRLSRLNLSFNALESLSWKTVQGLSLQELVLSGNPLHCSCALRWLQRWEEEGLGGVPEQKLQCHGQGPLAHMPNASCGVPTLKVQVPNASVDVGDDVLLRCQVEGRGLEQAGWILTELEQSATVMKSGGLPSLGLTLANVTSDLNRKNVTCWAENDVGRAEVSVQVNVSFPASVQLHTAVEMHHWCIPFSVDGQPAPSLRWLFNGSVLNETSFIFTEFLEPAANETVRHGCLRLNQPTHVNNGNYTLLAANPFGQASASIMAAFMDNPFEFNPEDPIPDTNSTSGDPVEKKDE
binder,measurement,setting,value
"Mature murine NGF (Austral Biologicals) (ligand, mouse, UniProt P01139 122-241, looked up, mature; Bought protein) SSTHPVFHMGEFSVCDSVSVWVGDKTTATDIKGKEVTVLAEVNINNSVFRQYFFETKCRASNPVESGCRGIDSKHWNSYCTTTHTFVKALTTDEKQAAWRFIRIDTACVCVLSRKATRRG",Kd,[1],~87 nM
same,Kd,[2],~1 nM
same,Kd,[3],~2 nM
same,Kd,[4],~8 nM
B1,Kd,[5],~12 nM
"Mature recombinant human BDNF (Promega #G1491) (ligand, Bought protein; also called mature BDNF) HSDPARRGELSVCDSISEWVTAADKKTAVDMSGGTVTVLEKVPVSKGQLKQYFYETKCNPMGYTKEGCRGIDKRHWNSQCRTTQSYVRALTMDSKKRIGWRFIRIDTSCVCTLTIKRGR",Kd,[6],~40 nM
same,Kd,[7],10 nM
